Test results: the RNAGym collection of RNA variant scans (doi:10.7554/elife.80360)

B1: CPEB3 Ribozyme (parent)
chain: GGGGGCCACAGCAGAAGCGUUCACGUCGCGGCCCCUGUCAGAUUCUGGUGAAUCUGCGAAUUCUGCUGU

Variants of: B1
Assay: self-cleavage, relative activity (ratio to wild type); higher = more cleavage; co-transcriptional

| Variant | self-cleavage |
| --- | --- |
| GGGGGCCACAGCAGAAGCGUUCACGUCGCGGCCCCUGUCAGAUUCUAGAGAAUCUGCGAAUUCUGCUGU | 1.01 |
| GGGGGCCACAGCAGAAGCGUUCACGUCGCGGCCCCUGUCAGAUUCUAGCGAAUCUGCGAAUUCUGCUGU | 0.975 |
| GGGGGCCACAGCAGAAGCGUUCACGUCGCGGCCCCUGUCAGAUUCUGAUGAAUCUGCUAAUUCUGCUGU | 0.987 |
| GGGGGCCACAGCAGAAGCGUUCACGUCGCGGCCCCUGUCAGAUUCUGAUGAAUCUGCCAAUUCUGCUGU | 0.98 |
| GGGGGCCACAGCAGAAGCGUUCACGUCGCGGCCCCUGUCAGAUUCUAGUGAAUCUGCGAAAUCUGCUGU | 0.941 |
| GGGGGCCACAGCAGAAGCGUUCACGUCGCGGCCCCUGUCAGAUUCUGAUGAAUCUGCGAGUUCUGCUGU | 0.916 |
| GGGGGCCACAGCAGAAGCGUUCACGUCGCGGCCCCUGUCAGAUUCUCGUGGAUCUGCGAAUUCUGCUGU | 1 |
| GGGGGCCACAGCAGAAGCGUUCACGUCGCGGCCCCUGUCAGAUUCUCGUGUAUCUGCGAAUUCUGCUGU | 1.02 |
| GGGGGCCACAGCAGAAGCGUUCACGUCGCGGCCCCUGUCAGAUUCUUGUGAAUCUGCGAAUUCUGCUUU | 1.01 |
| GGGGGCCACAGCAGAAGCGUUCACGUCGCGGCCCCUGUCAGAUUCUUGUGAAUCUGCGAAUUCUGCUAU | 0.991 |
| GGGGGCCACAGCAGAAGCGUUCACGUCGCGGCCCCUGUCAGAUUCUUGUGAAUCUGCGAAUUCUGCUCU | 1.01 |
| GGGGGCCACAGCAGAAGCGUUCACGUCGCGGCCCCUGUCAGAUUCUCGUGAAUAUGCGAAUUCUGCUGU | 0.949 |
| GGGGGCCACAGCAGAAGCGUUCACGUCGCGGCCCCUGUCAGAUUCUGCUGAAUCUGCGAGUUCUGCUGU | 0.948 |
| GGGGGCCACAGCAGAAGCGUUCACGUCGCGGCCCCUGUCAGAUUCUGAUGAAUCAGCGAAUUCUGCUGU | 0.99 |
| GGGGGCCACAGCAGAAGCGUUCACGUCGCGGCCCCUGUCAGAUUCUCGUGAAUCUGCGAAUCCUGCUGU | 0.91 |
| GGGGGCCACAGCAGAAGCGUUCACGUCGCGGCCCCUGUCAGAUUCUUGUGGAUCUGCGAAUUCUGCUGU | 0.998 |
| GGGGGCCACAGCAGAAGCGUUCACGUCGCGGCCCCUGUCAGAUUCUAGUGAAUCUGCGAAUUCUGCUGC | 1.06 |
| GGGGGCCACAGCAGAAGCGUUCACGUCGCGGCCCCUGUCAGAUUCUGCUGCAUCUGCGAAUUCUGCUGU | 1.02 |
| GGGGGCCACAGCAGAAGCGUUCACGUCGCGGCCCCUGUCAGAUUCUGCUGUAUCUGCGAAUUCUGCUGU | 0.976 |
| GGGGGCCACAGCAGAAGCGUUCACGUCGCGGCCCCUGUCAGAUUCUUGUGAAUCUGCGAAUUCUUCUGU | 0.946 |

| Variant | self-cleavage |
| --- | --- |
| GGGGGCCACAGCAGAAGCGUUCACGUCGCGGCCCCUGUCAGAUUCUUGUGAAUCUGCGAAUUCUACUGU | 0.953 |
| GGGGGCCACAGCAGAAGCGUUCACGUCGCGGCCCCUGUCAGAUUCUCGUGAAUCUGCGAGUUCUGCUGU | 1.01 |
| GGGGGCCACAGCAGAAGCGUUCACGUCGCGGCCCCUGUCAGAUUCUCGUGAAUCUGCGACUUCUGCUGU | 0.366 |
| GGGGGCCACAGCAGAAGCGUUCACGUCGCGGCCCCUGUCAGAUUCUUGUGAAUCUGCGAAUUCCGCUGU | 0.943 |
| GGGGGCCACAGCAGAAGCGUUCACGUCGCGGCCCCUGUCAGAUUCUUGUGAAUCUGCGAAUUCAGCUGU | 0.904 |
| GGGGGCCACAGCAGAAGCGUUCACGUCGCGGCCCCUGUCAGAUUCUUAUGAAUCUGCGAAUUCUGCUGU | 1.03 |
| GGGGGCCACAGCAGAAGCGUUCACGUCGCGGCCCCUGUCAGAUUCUUUUGAAUCUGCGAAUUCUGCUGU | 1.01 |
| GGGGGCCACAGCAGAAGCGUUCACGUCGCGGCCCCUGUCAGAUUCUUGUGAAACUGCGAAUUCUGCUGU | 1.01 |
| GGGGGCCACAGCAGAAGCGUUCACGUCGCGGCCCCUGUCAGAUUCUUGUGAAUCUGCGAAUUCUGCGGU | 1.01 |
| GGGGGCCACAGCAGAAGCGUUCACGUCGCGGCCCCUGUCAGAUUCUUGUGAAUCUGCGAAUUCUGCAGU | 0.99 |
| GGGGGCCACAGCAGAAGCGUUCACGUCGCGGCCCCUGUCAGAUUCUCGUGAAUCUGCGAAUUCUGUUGU | 1 |
| GGGGGCCACAGCAGAAGCGUUCACGUCGCGGCCCCUGUCAGAUUCUGAUGAAUCUGCGAAUUCUGCUAU | 1.01 |
| GGGGGCCACAGCAGAAGCGUUCACGUCGCGGCCCCUGUCAGAUUCUGAUGAAUCUGCGAAUUCUGCUUU | 1.01 |
| GGGGGCCACAGCAGAAGCGUUCACGUCGCGGCCCCUGUCAGAUUCUCGAGAAUCUGCGAAUUCUGCUGU | 1 |
| GGGGGCCACAGCAGAAGCGUUCACGUCGCGGCCCCUGUCAGAUUCUAGUGAAUCUGCGAAUGCUGCUGU | 0.959 |
| GGGGGCCACAGCAGAAGCGUUCACGUCGCGGCCCCUGUCAGAUUCUUGUGAAUCUUCGAAUUCUGCUGU | 0.983 |
| GGGGGCCACAGCAGAAGCGUUCACGUCGCGGCCCCUGUCAGAUUCUCGUGAAUCGGCGAAUUCUGCUGU | 0.931 |
| GGGGGCCACAGCAGAAGCGUUCACGUCGCGGCCCCUGUCAGAUUCUCGUGAAUCAGCGAAUUCUGCUGU | 1.03 |
| GGGGGCCACAGCAGAAGCGUUCACGUCGCGGCCCCUGUCAGAUUCUGAUGAAUCUGAGAAUUCUGCUGU | 0.329 |
